According to US20080187548A1 (LUDWIG INSTITUTE FOR CANCER RESEARCH, published 2008):

Tests used:
Experiment in all cases: cell-based or functional assay
HLA-DRB1*0101 = HLA-DRB1*0101 (human)
HLA-DRB1*0401 = HLA-DRB1*0401 (human)
HLA-DRB1*0301 = HLA-DRB1*0301 (human)
HLA-DRB1*0701 = HLA-DRB1*0701 (human)

Question: What does the source list for TIRLTAADHRQLQLS [NY-ESO-1 peptide, amino acids 134-148 (TIRLTAADHRQLQLS; SEQ ID NO: 2)]?
Answer: Responding patients (%) (HLA-DRB1*0101): 28.6%; Responding patients (n = 38) (HLA-DRB1*0101): 2 patients; Responding patients (%) (HLA-DRB1*0401): 28.6%; Responding patients (n = 38) (HLA-DRB1*0401): 2 patients; Responding patients (%) (HLA-DRB1*0301): 10%; Responding patients (n = 38) (HLA-DRB1*0301): 1 patients; Responding patients (%) (HLA-DRB1*0701): 14.3%; Responding patients (n = 38) (HLA-DRB1*0701): 1 patients
